Measurements as given in patent US9359446B2, “Antibody to a carbonic anhydrase” (Hemholtz Zentrum Munchen—Deutches Forschungszentrum Fur …, priority 2010, dated 2016).

Columns and labels:
[1] = target: T1, CA-XII (Homo sapiens, UniProt O43570); assay: Flow cytometry binding to murine L929 cells transfected with human CA-XII; parameters: expressed in transfected cells; host or cells: murine L929 cells
Protocol: (§1) Murine L929 cells were transfected with an expression plasmid encoding human CA-XII. […] As a control, binding of EXO 6A10 to non-transfected L929-cells was tested (FIG. 10, grey area, L929). […] the binding of membrane localized overexpressed human CA-XII.

[2] = target: T1, CA-XII; assay: CA-XII inhibition by EXO 6A10 and azetazolamide; assay type: biochemical; details: compared to sulfonamid azedazolamide
[3] = target: CA-II (Homo sapiens, UniProt P00918); assay: EXO 6A10 inhibition of CA II; assay type: biochemical
[4] = system: non-transfected L929-cells; assay: Flow cytometry binding to non-transfected L929 cells (control); parameters: species or system murine
Protocol: as §1

[5] = system: A549 lung cancer cells; assay: Inhibition of metabolic activity and growth in 3-dimensional A549 tumour spheroids (MTT-assay, pictures); assay type: cell-based, human
Protocol: Metabolic acitivity of the spheroid was measured two days later by means of a MTT-assay and reading of the extinction at 595 nm (Cory et al. 1991). All data are represented as mean±standard error. Comparisons between non-treated and treated spheroids were performed using t-tests.
A549 lung cancer cells were plated onto a cushion consisting of 1% (v/v) agarose in PBS on a 96-well cell culture plate. […] Instead cells spontaneousely form 3-dimensional structures termed tumour spheroids.
FIG. 7, Upper: Some of the spheroids were cultivated in the presence of EXO 6A10 (final concentration 10 μg/ml) whereas others were cultivated with acetazolamide (AAZ, final concentration 100 μM). Control spheroids were cultivated without any additional treatment (Unbeh.). The metabolic acitivity of the spheroid was measured two days later by means of a MTT-assay as described and reading of the extinction at 595 nm (Cory et al. 1991). For each group, 10 spheroids were included, the mean value, the standard deviation were calculated. All data are represented as mean±standard error. Comparisons between non-treated and treated spheroids were performed using t-tests, calculated using Prism4 (GraphPad Software, La Jolla).
FIG. 7, Lower: A549 spheroids were cultivated for two days with EXO 6A10 or left untreated.

[6] = system: peripheral blood mononuclear cells (PBMC), melanoma cell lines; assay: Flow cytometry binding to peripheral blood mononuclear cells and melanoma cell lines; parameters: species or system human; details: hybridoma supernatant diluted 1:5
Protocol: FIG. 4A. Permanent human cancer cell lines were incubated with EXO 6A10 (hybridoma supernatant diluted 1:5 in 2% (v/v) FCS (i.e., fetal calf serum) in PBS) for 15 min on ice, washed three times in PBS/2% (v/v) FCS and then stained with a specific secondary antibody (goat-anti-rat IgG/Cy5) for another 15 min on ice. Binding of 6A10 was then measured by flow cytometry in a Becton Dickinson FACS Calibur device and FlowJo software (Treestar Inc.). An antibody of the identical isotype with an irrelevant specificity (glutathione-S-transferase) was used as control. (grey are=isotype control; black line=EXO 6A10). No binding to peripheral blood mononuclear cells (PBMC) and to two melanoma cell lines (not shown) was detectable. […] Exosomes were isolated from malignant ascites by differential centrifugation (500×g; 10.000×g; 70.000×g) and resuspended in PBS. The protein concentration was measured in a standard Bradford assay. 2 μg protein were pipetted onto a nitrocellulose membrane. Membranes were incubated with the different primary antibodies. After washing, membranes were incubated with a specific secondary antibodiy (anti-rat IgG/peroxidase). Ganglioside GM1 was detected with cholera toxine subunit B/peroxidase. Membranes were developed with the ECL system.

T1 sequence (O43570 25-354): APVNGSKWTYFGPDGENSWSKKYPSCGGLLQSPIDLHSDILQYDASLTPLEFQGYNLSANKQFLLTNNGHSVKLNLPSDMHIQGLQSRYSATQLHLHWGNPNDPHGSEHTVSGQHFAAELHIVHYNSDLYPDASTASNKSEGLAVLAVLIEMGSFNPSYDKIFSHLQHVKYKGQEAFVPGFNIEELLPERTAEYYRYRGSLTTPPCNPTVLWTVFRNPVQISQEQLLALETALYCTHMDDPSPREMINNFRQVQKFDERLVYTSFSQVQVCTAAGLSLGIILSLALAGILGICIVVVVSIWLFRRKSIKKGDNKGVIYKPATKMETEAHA

B1: EXO 6A10: rat monoclonal antibody raised to human CA-XII; CDRs SEQ ID NOs 1 to 6, VH SEQ ID NO. 7, VL SEQ ID NO. 8 (protein)
light: MARVFQQDDIVMTQTPATLSVTPGESVSLSCRASQGISTSIHWYQQKSNESPRLLIKFASQSISGIPSRFSGSGSGTDFTLSINRVESEDFSVYFCQQTYSLPYTFGAGTKLELKRADGCTNCIHLSRRSPTIFSAAMENRCSSFILSRFSGCILKLILRTMLTTSSGTVVGG
VH: EVKLEESGPGLVQPSETLSLTCTVSGFSLTTYSVSWVRQPSGKGPEWMGRMWYDGDTVYNSALKSRLSISRDTSKNQVFLKMNSLETDETGTYYCTRDFGYFDGSSPFDYWGQGVMVTVSSAETTAPSVYPLAPGTALKSNSMVTLGCLVKILLKNSSHPEDLAAALPIVSRITPDGYGVQAQVLKQLILFTMRKKQ
binding to L929 cells transfected with human CA-XII [1]: binds to transfected
inhibition of CA-XII enzyme activity relative to azedazolamide [2]: 40 times
inhibition of CA-II [3]: does not significantly inhibit
binding to non-transfected L929 cells [4]: not to non-transfected cells
metabolic activity of spheroids (MTT-assay, extinction at 595 nm) ([5]; A549 spheroids, 10 μg/ml, two days): inhibition of metabolic activity
size and density of A549 spheroids ([5]; cultivated for two days, versus untreated spheroids): much smaller and much more dense
growth of tumour cell line A549 ([5]; hypotoxic culture conditions): inhibits the growth
binding to PBMC and two melanoma cell lines [6]: No binding
